Assay results taken from patent US20200207847A1 (SINGAPORE HEALTH SERVICES PTE, published 2020).

T1: human IL-11Rα, FLAG-tagged, expressed at the surface of transiently transfected cells (human, UniProt Q14626 23-422)
T1 construct: whole, on cells; also called IL-11Rα expressing HEK cells; FLAG-tagged human IL-11Rα; not shown: tag
T1 sequence (looked up): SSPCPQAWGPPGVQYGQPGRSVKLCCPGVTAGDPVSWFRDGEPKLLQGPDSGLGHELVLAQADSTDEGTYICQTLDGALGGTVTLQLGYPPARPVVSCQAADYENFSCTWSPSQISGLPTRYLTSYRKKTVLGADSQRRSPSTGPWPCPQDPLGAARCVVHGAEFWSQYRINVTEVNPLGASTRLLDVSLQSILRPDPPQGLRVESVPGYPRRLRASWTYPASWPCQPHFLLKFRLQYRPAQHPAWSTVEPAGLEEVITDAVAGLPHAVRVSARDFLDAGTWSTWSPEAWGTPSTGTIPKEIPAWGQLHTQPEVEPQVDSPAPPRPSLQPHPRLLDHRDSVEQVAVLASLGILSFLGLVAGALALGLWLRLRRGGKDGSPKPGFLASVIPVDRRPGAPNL


Assays:
[1] = biological target: T1, human IL-11Rα, FLAG-tagged, expressed …; assay: same assay; percent relative to the positive control anti-FLAG antibody (100%)
Description: (§1) Briefly, labelled control cells (not expressing IL-11Rα at the cell surface) and unlabelled target cells expressing human IL-11Rα at their surface (following transient transfection with a plasmid encoding a FLAG-tagged human IL-11Rα) were mixed together with the cell culture supernatant (containing mouse-anti-IL-11Rα antibodies) and secondary detection antibodies (fluorescently-labelled anti-mouse IgG antibody).
(§2) The cells were then analysed using the HTFC Screening System (iQue) for the two labels (i.e. the cell label and the label on the secondary antibody). Detection of the secondary antibody on the unlabelled, IL-11Rα expressing cells indicated ability of the mouse-anti-IL-11Rα antibodies to bind to IL-11Rα. Detection of the secondary antibody on the labelled, control cells indicated cross-reactivity of the mouse-anti-IL-11Rα antibodies for target other than IL-11Rα.
As a positive control condition, labelled and unlabelled cells were incubated with a mouse anti-FLAG tag antibody as the primary antibody.

[2] = biological target: T1, human IL-11Rα, FLAG-tagged, expressed …; assay: flow cytometry of subcloned hybridoma supernatant on cells transfected with FLAG-tagged human IL-11Rα (sheet header: 'pB1-IL11-hum.FL', 'flow cytometry (Attunes)'; text: iQue mix-and-measure, anti-mouse IgG secondary)
Description: The mouse hybridomas producing anti-human IL-11Rα antibodies were sub-cloned, and cell culture supernatant from the subcloned hybridomas was analysed by “mix-and-measure” iQue assay for (i) ability to bind to human IL-11Rα, and (ii) cross reactivity for antigen other than IL-11Rα.
as §1, §2

% positive [1] | GMFI [2] | Binder
111% | 34800 | BSO-9A7 (antibody, V domains shown, Mouse monoclonal from hybridoma; also called RA7) VH: QVQLQQPGAELVRPGSSVKLSCKASGYTFTNYWMHWLKQRPVQGLEWIGNIGPSDSKTHYNQKFKDKATLTVDKSSSTAYMQLNSLTSEDSAVYYCARGDYVLFTYWGQGTLVTVSA VL: DIVLTQSPATLSMTPGDSVSLSCRASQSISNNLHWYQQKSHESPRLLIKYASQSISGIPSRFSGSGSGTDFTLSFNSVETEDFGVYFCQQRYSWPLTFGAGTKLEMK
30% | 9300 | BSO-4G3 (antibody, V domains shown, Mouse monoclonal from hybridoma) VH: EVQLVESGGGLVKPGGSLKLSCAASGFTFSTYAMSWVRQTPEKRLEWVAAIKSNGGSTYYPDTVKDRFTISRDNAKNTLYLQMSSLRPEDTALYYCAHGLLFAHWGQGTLVTVSA VL: DIVLTQSPASLAVSLGQSVTISCRASESVEYSGTTLMQWYQQKPGQPPKLLIYGASNVESGVPARFSGSGSGTDFSLNIHPVEEDDIAMYFCQQSRKVPYTFGSGTKLEIK
30% | 9540 | BSO-2E5 (antibody, V domains shown, Mouse monoclonal from hybridoma; also called RA3) VH: QGQVQQSGAELVKPGASVKLSCKTSGFTFSTSYISWLKQKPRQSLEWIAWIYAGTGSTSYNQKFTGKAQLTVDTSSSTAYMQLSSLTSEDSAIYYCARHWAYWGQGTLVTVSA VL: DIQMTQSPSSLSASLGERVSLTCRASQDIGSSLNWLQQEPDGTIKRLIYATASLESGVPKRFSGSRSGSDYSLTISRLESEDFVDYYCQQYASSPPTFGAGTKLELK
59% | 18600 | BSO-7G9 (antibody, V domains shown, Mouse monoclonal from hybridoma) VH: QVQLQQPGAELVKPGASVRLSCKASGYTFTSYWMHWVKQRPGQGLEWIGMIHPNSGYTNYNEKFKIKATLTVDKSSSTAHMQLSSLTSEDSAVYHCARGGYDGSYGPWFAYWGQGTLVTVSA VL: DVVMTQTPLSLPVSLGDQASISCRSSQSLVHSNGNTYLHWYLQKPGQSPKLLIYKVSNRFSGVPDRFSGSGSGTDFTLKISRVEAEDLGVYFCSQSTHVPLTFGAGTKLELK
42% | 13100 | BSO-10D11 (antibody, V domains shown, Mouse monoclonal from hybridoma) VH: QVQLQQSGTELVRPGTSVKMSCKAAGYTFTDYWIGWIKQRPGHGLEWIGDIFPGGDYTKCSERFKGKAKLTADTSSSTAYMQLSRLTSEDSAIYYCARRSTTIRFGAMDNWGQGTSVTVSS VL: DIQMTQSPSSLSASLGERVSLTCRASQEISAYLSWLQQKPDGTIKRLIYSTSTLDSGVPKRFSGSRSGSDYSLTISSLESEDFADYFCLQYASSPLTFGAGTKLELK
28% | 8780 | BSO-5E5 (antibody, V domains shown, Mouse monoclonal from hybridoma; also called RA5) VH: DVQLQESGPGLVKPSQSLSLTCSVTGYSITSDYYWNWIRQFPGNKLEWMGYISYDSSNNYNPSLKNRISITRDTSKNQFFLKLNSVTTEDTATYYCASVGYYYVSDWYFDVWGTGTTVTVSS VL: DIVMSQSPSSLPVSVGENVTMSCKSSQSLLYGSNQKNYLAWYQQKPGQSPKLLIYWASTRESGVPDRFTGSGSGTDFTLTISSVKAEDLAVYFCQQYYSYPRTFGGGTKLEIK
35% | 10900 | BSO-13B10 (antibody, V domains shown, Mouse monoclonal from hybridoma; also called RA9) VH: QVQLKESGPGLVAPSQSLSITCTVSGFSLTSFSISWVRQPPGKGLEWLGGIWTGGGTNYNSALKPRLSISKDNSKSQVFLKMNSLQTDDTARYYCARNSNYPSGFAYWGQGTLVTVSA VL: DIVMTQSQKFMSTSVGDRVSVTCKASQNVGSNVAWYQQKAGQSPKALIYSASYRYSGVPDRFTGSGSGTDFTLTISNVQSEDLAEYFCQQYNSYPLTFGAGTKLELK
